Results on one protein are retold here after paper PMC9652331, “Cryo-EM structures of human m^6A writer complexes” (Cell Research, 2022).

The series concerns the molecule itself. Kind of series: cross-linking; BS3 XL-MS of purified MACOM (Fig. S4a, b): 0.5 mM BS3, 50 mM HEPES pH 7.5, 100 mM KCl, 5% glycerol, 25 °C, 2 h; pLink2.

B1: Wilms' tumor 1-associated protein (WTAP), full length, N-6× His-WTAP (natural protein, human, UniProt Q15007 1-396, looked up)
chain: MTNEEPLPKKVRLSETDFKVMARDELILRWKQYEAYVQALEGKYTDLNSNDVTGLRESEEKLKQQQQESARRENILVMRLATKEQEMQECTTQIQYLKQVQQPSVAQLRSTMVDPAINLFFLKMKGELEQTKDKLEQAQNELSAWKFTPDSQTGKKLMAKCRMLIQENQELGRQLSQGRIAQLEAELALQKKYSEELKSSQDELNDFIIQLDEEVEGMQSTILVLQQQLKETRQQLAQYQQQQSQASAPSTSRTTASEPVEQSEATSKDCSRLTNGPSNGSSSRQRTSGSGFHREGNTTEDDFPSSPGNGNKSSNSSEERTGRGGSGYVNQLSAGYESVDSPTGSENSLTHQSNDTDSSHDPQEEKAVSGKGNRTVGSRHVQNGLDSSVNVQGSVL
notes: Wilms' tumor 1-associated protein (WTAP), human, full length; Stands as a homodimer in the MACOM complexes (two copies, WTAP-a and WTAP-b); No removal of the His tag is described; also called WTAP-a; WTAP-b; source: High Five insect cells, co-expressed with the other MACOM components, purified as a complex (Ni-NTA, STREP beads, SEC); not shown: 6× His, N-terminal, kept
Consider B1, for which the binding result is “binds”.
